Values quoted from earlier work in publication PMC8508939.

Target: FoxP1 forkhead domain (Homo sapiens) (UniProt Q9H334)

## FoxP1 forkhead domain (from UniProt Q9H334)
  Kd: 27 µM
